Biological target: T1, HA-PDE3B (human) phosphorylated by co-expressed Flag-TBK1 (human, UniProt Q13370 1-1112, phosphorylated by co-expressed TBK1; serines 22, 299, 318, 381, 463, 467 and 503 found phosphorylated by LC-MS/MS (HA-PDE3B from Cos-1 cells))
T1 construct: Phosphodiesterase 3B (PDE3B), human cDNA (from Dr Morris Birnbaum); The phosphorylation sites were mapped in Cos-1 cells; also called phosphorylated PDE3B; the wild-type protein; source: HEK293T, transfected together with Flag-TBK1, in lysate; immunoprecipitated for the overlay
T1 sequence (Q13370 whole entry): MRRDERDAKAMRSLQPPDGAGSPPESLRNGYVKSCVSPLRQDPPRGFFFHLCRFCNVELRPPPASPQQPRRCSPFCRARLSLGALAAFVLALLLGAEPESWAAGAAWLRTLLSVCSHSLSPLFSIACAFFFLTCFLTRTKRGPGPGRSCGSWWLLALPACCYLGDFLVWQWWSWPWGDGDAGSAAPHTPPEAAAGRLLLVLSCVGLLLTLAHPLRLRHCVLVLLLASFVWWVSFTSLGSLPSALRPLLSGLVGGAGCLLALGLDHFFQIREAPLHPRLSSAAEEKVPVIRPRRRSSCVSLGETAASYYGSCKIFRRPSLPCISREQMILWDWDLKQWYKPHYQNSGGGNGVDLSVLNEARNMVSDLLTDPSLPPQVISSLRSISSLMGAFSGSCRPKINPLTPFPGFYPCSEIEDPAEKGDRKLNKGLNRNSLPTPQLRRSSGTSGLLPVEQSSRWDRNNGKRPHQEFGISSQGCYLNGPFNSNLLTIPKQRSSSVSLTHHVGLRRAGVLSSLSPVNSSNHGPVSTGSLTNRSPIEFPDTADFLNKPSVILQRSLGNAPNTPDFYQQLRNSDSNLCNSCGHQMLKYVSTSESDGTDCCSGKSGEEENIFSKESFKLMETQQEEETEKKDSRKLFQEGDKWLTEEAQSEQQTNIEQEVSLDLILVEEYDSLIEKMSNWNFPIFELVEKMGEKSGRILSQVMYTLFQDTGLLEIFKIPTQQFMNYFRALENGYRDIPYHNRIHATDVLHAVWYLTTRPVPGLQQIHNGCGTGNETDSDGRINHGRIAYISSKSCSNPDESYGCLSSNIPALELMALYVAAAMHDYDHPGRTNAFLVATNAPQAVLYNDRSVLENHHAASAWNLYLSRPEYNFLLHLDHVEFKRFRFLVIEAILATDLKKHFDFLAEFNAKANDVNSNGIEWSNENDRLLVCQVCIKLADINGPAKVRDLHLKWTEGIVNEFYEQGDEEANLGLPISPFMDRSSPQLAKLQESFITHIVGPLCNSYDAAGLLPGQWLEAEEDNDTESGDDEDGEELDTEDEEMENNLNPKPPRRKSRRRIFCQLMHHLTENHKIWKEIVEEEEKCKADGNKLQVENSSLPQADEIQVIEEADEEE
Test: pull-down; GST or GST-14-3-3β on glutathione beads incubated 1.5 hr at 4°C with cleared lysates of HEK293T cells co-expressing HA-PDE3B and Flag-TBK1 or K38A; PD buffer 15 mM Tris pH 7.5, 150 mM NaCl, 0.5% NP-40, 1 mM DTT
Details: one partner purified

B1: GST-14-3-3β fusion protein (natural protein, human, UniProt P31946 1-246, looked up)
chain: MTMDKSELVQKAKLAEQAERYDDMAAAMKAVTEQGHELSNEERNLLSVAYKNVVGARRSSWRVISSIEQKTERNEKKQQMGKEYREKIEAELQDICNDVLELLDKYLIPNATQPESKVFYLKMKGDYFRYLSEVASGDNKQTTVSNSQQAYQEAFEISKKEMQPTHPIRLGLALNFSVFYYEILNSPEKACSLAKTAFDEAIAELDTLNEESYKDSTLIMQLLRDNLTLWTSENQGDEGDAGEGEN
modifications: DIG-labelled (DIG-NHS) in the overlay assay only
notes: 14-3-3β, human cDNA (from Dr Ken Inoki) subcloned into pGEX-4T-1; source: eluted with glutathione for the overlay
binding result: binds
